# B1: Cyanovirin-N wild type, P81180 (protein)
# chain: LGKFSQTCYNSAIQGSVLTSTCERTNGGYNTSSIDLNSVIENVDGSLKWQPSNFIETCRNTQLAGSSELAAECKTRAQQFVSTKINLDDHIANIDGTLKYE
# Conditions: Nostoc ellipsosporum, pH 6, 25 °C, GdnHCl, sodium phosphate 20 mM, transition: 2, reversible: yes(90%), whole UniProt chain shown
protein,measurement,setting,value
B1,denaturant m value,CD,2 kcal/mol/M
same,denaturant midpoint (higher = more stable),CD,2.5 M
same,denaturant m value,fluorescence,1.9 kcal/mol/M
same,denaturant midpoint (higher = more stable),fluorescence,2.6 M
